Data reported in patent US6010897, “Expression of signal-peptide-free staphylokinases” (dated 2000).

Columns and labels:
[1] = target: plasminogen (species not stated)
[2] = target: human plasminogen, isolated from human plasma and immobilized on Protein-Pak epoxy-activated carrier (human, UniProt P00747); assay: analytical affinity chromatography on immobilized human plasminogen, 16° C.

Molecule | specific activity in µmol plasmin/(µmol SAK × min) (µmol plasmin/(µmol SAK × min)) [1] | Kd [2] [nM]
N10ΔSAK42D (SAK42D shortened by 10 amino acids at the N-terminus) | 22.7 | –
N14ΔSAK42D (SAK42D shortened by 14 amino acids at the N-terminus) | 8.1 | –
SAK42D (mature native staphylokinase of S. aureus phage 42D, expressed free of signal peptide in E. coli TG1(pMEX602sak)) (from UniProt P15240) | 16.2 | –
SAKM26C (artificial allelic SAK form) | 21.1 | –
SAKM26L (artificial allelic SAK form) | 36.6 | –
N10ΔSAK42D (SAK42D shortened by 10 amino acids at the N-terminus) (other) KGDDASYFEPTGPYLMVNVTGVDGKRNELLSPRYVEFPIKPGTTLTKEKIEYYVEWALDATAYKEFRVVELDPSAKIEVTYYDKNKKKEETKSFPITEKGFVVPDLSEHIKNPGFNLITKVVIEKK | – | 2210
N14ΔSAK42D (SAK42D shortened by 14 amino acids at the N-terminus) (other) ASYFEPTGPYLMVNVTGVDGKRNELLSPRYVEFPIKPGTTLTKEKIEYYVEWALDATAYKEFRVVELDPSAKIEVTYYDKNKKKEETKSFPITEKGFVVPDLSEHIKNPGFNLITKVVIEKK | – | 4400
SAK42D (mature native staphylokinase of S. aureus phage 42D, expressed free of signal peptide in E. coli TG1(pMEX602sak)) (other) SSSFDKGKYKKGDDASYFEPTGPYLMVNVTGVDGKRNELLSPRYVEFPIKPGTTLTKEKIEYYVEWALDATAYKEFRVVELDPSAKIEVTYYDKNKKKEETKSFPITEKGFVVPDLSEHIKNPGFNLITKVVIEKK | – | 1480
